# Results reported in paper PMC8377490.
# System: C[C@@H]1O[C@@H](O[C@H]2[C@H](O)[C@@H](O)C(O)O[C@@H]2C(=O)O)[C@H](O)[C@H](O)[C@H]1O
# Assay: purified protein
# Conditions: 50 mM Hepes-NaOH pH 7.0, 30 °C, 20 nM enzyme
substance,measurement,value
"FoRham1 (GA-specific L-rhamnose-α-1,4-D-glucuronate lyase) (Fusarium oxysporum)",Km,2.8 ± 0.2 mM
same,kcat,95.5 s⁻¹
same,kcat/Km,34100 M⁻¹ s⁻¹
